According to patent KR20130033273A (dated 2013):

Target: T1, IGF-1R (Insulin-like growth factor 1 receptor) on the surface of MCF-7 cells (UniProt P08069 31-1367, limits assumed)
T1 construct: whole, on cells; Endogenous receptor of MCF-7 cells; also called MCF-7 세포 표면 IGF-1R 항원; IGF-1 수용체
Experiment: flow cytometry (FACS) on MCF-7 cells, 1 ug/ml antibody, anti-human IgG-FITC

T1 sequence (P08069 31-1367 limits assumed): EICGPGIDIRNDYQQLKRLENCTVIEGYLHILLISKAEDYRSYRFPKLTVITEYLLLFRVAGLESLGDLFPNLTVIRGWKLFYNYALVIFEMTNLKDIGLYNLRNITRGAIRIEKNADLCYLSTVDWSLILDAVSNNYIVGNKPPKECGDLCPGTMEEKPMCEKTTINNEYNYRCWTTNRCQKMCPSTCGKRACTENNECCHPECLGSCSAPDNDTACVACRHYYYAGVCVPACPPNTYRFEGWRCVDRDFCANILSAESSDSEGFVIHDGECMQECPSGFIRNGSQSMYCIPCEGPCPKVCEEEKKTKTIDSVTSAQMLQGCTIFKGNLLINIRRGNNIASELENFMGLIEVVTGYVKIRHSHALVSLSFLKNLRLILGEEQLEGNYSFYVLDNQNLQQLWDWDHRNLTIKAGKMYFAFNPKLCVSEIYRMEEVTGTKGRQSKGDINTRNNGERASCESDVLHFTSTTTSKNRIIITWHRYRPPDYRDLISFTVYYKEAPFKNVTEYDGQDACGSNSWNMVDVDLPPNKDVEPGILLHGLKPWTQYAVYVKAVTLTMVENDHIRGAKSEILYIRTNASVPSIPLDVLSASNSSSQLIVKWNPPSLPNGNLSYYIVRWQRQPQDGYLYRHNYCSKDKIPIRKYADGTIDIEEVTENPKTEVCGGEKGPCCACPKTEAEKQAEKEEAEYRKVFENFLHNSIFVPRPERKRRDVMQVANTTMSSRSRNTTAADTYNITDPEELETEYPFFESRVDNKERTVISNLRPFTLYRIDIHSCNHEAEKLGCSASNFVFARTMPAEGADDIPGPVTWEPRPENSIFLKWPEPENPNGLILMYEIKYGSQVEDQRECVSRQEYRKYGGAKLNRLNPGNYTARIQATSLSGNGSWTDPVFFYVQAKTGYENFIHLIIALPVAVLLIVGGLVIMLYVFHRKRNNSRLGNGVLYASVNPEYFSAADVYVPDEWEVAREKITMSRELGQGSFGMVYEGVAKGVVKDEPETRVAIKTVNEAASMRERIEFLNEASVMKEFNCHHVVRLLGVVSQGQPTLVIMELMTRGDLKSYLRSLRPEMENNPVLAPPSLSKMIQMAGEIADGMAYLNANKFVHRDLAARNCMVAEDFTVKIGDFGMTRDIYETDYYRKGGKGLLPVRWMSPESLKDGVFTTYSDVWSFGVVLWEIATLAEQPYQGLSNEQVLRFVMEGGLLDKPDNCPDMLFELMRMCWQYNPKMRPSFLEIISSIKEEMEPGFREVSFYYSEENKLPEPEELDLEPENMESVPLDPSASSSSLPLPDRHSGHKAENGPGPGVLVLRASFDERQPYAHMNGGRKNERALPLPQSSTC

- binding result: binds
B1: 항IGF-1R 항체(A12) (antibody, human IgG1, lambda, V domains shown)
VH: EVQLVQSGAEVKKPGSSVKVSCKASGGTFSSYAISWVRQAPGQGLEWMGGIIPIFGTANYAQKFQGRVTITADKSTSTAYMELSSLRSEDTAVYYCARAPLRFLEWSTQDHYYYYYMDVWGKGTTVTVSS
VL: SSELTQDPAVSVALGQTVRITCQGDSLRSYYATWYQQKPGQAPILVIYGENKRPSGIPDRFSGSSSGNTASLTITGAQAEDEADYYCKSRDGSGQHLVFGGGTKLTVLG
notes: IgG form; also called 항암항체(A12); Imclone사(A12) 항IGF-1R 항체
